According to patent US20210260212A1 (MAGENTA THERAPEUTICS, published 2021):

Molecular target: T1, human CD2 on the surface of cells (MOLT-4 human T lymphoblast cells); primary human T-cells; primary human NK … (human, UniProt P06729 25-351)
T1 sequence: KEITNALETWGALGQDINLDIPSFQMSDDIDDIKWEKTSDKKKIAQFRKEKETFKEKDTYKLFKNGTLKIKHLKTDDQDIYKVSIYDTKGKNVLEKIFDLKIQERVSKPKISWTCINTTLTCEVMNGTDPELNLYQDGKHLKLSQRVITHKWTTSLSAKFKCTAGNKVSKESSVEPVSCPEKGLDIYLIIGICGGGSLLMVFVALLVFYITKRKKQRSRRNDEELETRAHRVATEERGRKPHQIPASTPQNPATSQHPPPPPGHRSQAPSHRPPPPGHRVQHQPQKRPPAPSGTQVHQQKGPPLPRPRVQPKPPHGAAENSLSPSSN
Experiment: cell-based or functional assay

B1: anti-CD2-amanitin ADC: RPA 2.10 conjugated to amanitin with a cleavable linker, interchain, average drug-to-antibody ratio of 6 (other)
heavy: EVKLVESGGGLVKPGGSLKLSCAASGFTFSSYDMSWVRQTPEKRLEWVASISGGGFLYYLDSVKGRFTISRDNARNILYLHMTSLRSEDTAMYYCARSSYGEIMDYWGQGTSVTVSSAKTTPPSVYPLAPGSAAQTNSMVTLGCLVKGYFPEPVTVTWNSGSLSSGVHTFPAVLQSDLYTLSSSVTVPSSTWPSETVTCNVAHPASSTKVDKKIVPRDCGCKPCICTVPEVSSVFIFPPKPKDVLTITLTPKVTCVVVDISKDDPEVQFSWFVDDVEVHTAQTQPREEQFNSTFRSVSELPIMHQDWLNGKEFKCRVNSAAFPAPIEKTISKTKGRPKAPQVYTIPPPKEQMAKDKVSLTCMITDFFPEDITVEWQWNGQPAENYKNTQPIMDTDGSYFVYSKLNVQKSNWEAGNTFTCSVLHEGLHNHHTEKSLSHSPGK
light: DILLTQSPAILSVSPGERVSFSCRASQRIGTSIHWYQQRTTGSPRLLIKYASESISGIPSRFSGSGSGTDFTLSINSVESEDVADYYCQQSHGWPFTFGGGTKLEIERADAAPTVSIFPPSSEQLTSGGASVVCFLNNFYPKDINVKWKIDGSERQNGVLNSWTDQDSKDSTYSMSSTLTLTKDEYERHNSYTCEATHKTSTSPIVKSFNRNEC
In the case of B1, the “viability of primary human NK cells after 4 days (CellTiter-Glo), in vitro NK-cell killing assay, IC50” value is reported as 5.2 pM.
